The source of these data is article PMC10141581.

Usually Kd stands for a measure of binding affinity in units of concentration. As usually defined, the stoichiometry N is a count of units in the complex or per binding partner.

For assay [1], the target named is HSPB6 (Homo sapiens) (UniProt O14558). Particulars: cited from earlier work.
Assay [2] concerns the target 14-3-3ζ (UniProt P63104). Put plainly: SEC-MALS of homodimer, 50 µM. The following applies: reference: 14-3-3ζ wild type; sites S58. On the technique in general: Size exclusion chromatography separates by hydrodynamic size, large species first.
In assay [3] the target is 14-3-3ζ WT (human) (UniProt P63104). Description: SEC-MALS; 14-3-3ζ variants alone, injected at 50 μM initial concentration; Superdex 200 10/300 GL; 50 mM Tris pH 7.4, 150 mM NaCl, 0.5 mM TCEP; room temperature; dimer to monomers.
Assay [4] deals with HSPB6-nhpSer16 (UniProt O14558). Description: AUC; sedimentation equilibrium; 14.3, 7.2 and 3.6 μM; 8,000, 10,000 and 15,000 rpm; 5 °C; 50 mM Tris pH 7.4, 150 mM NaCl, 1 mM TCEP; global fit to A + B ↔ AB with fixed masses of a HSPB6 dimer and a 14-3-3ζ dimer.
In assay [5] the target is HSPB6-pSer16 (UniProt O14558). The assay is described as above.
HSPB6-pSer16, sequence (O14558 whole entry): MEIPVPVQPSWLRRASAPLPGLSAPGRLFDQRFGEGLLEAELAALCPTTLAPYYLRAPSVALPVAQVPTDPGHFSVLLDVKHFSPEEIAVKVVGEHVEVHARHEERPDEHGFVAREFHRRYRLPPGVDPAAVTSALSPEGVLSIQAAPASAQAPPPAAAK
The target in assay [6] is HSPB6-nhpSer16 (UniProt O14558). Description: SEC-MALS; co-purified 14-3-3ζ/HSPB6 complexes, or purified HSPB6 mixed with 14-3-3ζ; Superdex 200 10/300 GL; 50 mM Tris pH 7.4, 150 mM NaCl, 0.5 mM TCEP; room temperature; samples at 50 μM.
The target of assay [7] is HSPB6-pSer16 (UniProt O14558). Described as above.
Assay [8] concerns the target 14-3-3ζ (UniProt P63104). Put plainly: His-tag co-purification after E. coli co-expression. The following applies: reference: HSPB6 wild type (Ser16); sites S16.
Assay [9] addresses FLAG-CRBN (human) (UniProt Q96SW2). Put plainly: co-IP; 20 μM purified Myc-14-3-3ζ added to lysate of HEK293T cells expressing FLAG-CRBN (Calyculin A, no phosphatase), 1 h; ANTI-FLAG M2 affinity gel; 50 mM Tris pH 7.5, 150 mM NaCl; Western blot with α-FLAG and α-myc. In general terms: Immunoblotting shows a protein as a band on a membrane.

14-3-3ζ WT, sequence (P63104 1-230): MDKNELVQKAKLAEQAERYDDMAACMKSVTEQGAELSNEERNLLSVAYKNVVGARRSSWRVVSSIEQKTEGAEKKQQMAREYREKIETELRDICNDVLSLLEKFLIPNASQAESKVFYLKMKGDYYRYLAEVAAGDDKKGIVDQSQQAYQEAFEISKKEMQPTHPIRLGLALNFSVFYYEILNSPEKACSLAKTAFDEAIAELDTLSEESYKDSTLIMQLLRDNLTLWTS
14-3-3ζ (from UniProt P63104) 14-3-3ζ pSer58 (genetic code expansion), sequence (P63104 whole entry, change not shown): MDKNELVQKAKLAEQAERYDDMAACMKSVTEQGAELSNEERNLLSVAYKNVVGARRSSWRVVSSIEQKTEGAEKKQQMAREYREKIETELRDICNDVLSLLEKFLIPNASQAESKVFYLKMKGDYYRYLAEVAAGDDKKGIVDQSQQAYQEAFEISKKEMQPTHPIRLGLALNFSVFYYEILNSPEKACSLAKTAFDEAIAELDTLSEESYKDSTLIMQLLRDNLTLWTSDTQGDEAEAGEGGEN
14-3-3ζ (from UniProt P63104), sequence (P63104 whole entry): as the sequence (P63104 whole entry, change not shown) above
myc-14-3-3ζ nhpSer58, sequence (P63104 whole entry): as the sequence (P63104 whole entry, change not shown) above
14-3-3ζ (UniProt P63104), sequence (P63104 whole entry): as the sequence (P63104 whole entry, change not shown) above
HSPB6 (Homo sapiens), sequence (O14558 whole entry): as the sequence (O14558 whole entry) above
FLAG-CRBN (human), sequence (Q96SW2 whole entry): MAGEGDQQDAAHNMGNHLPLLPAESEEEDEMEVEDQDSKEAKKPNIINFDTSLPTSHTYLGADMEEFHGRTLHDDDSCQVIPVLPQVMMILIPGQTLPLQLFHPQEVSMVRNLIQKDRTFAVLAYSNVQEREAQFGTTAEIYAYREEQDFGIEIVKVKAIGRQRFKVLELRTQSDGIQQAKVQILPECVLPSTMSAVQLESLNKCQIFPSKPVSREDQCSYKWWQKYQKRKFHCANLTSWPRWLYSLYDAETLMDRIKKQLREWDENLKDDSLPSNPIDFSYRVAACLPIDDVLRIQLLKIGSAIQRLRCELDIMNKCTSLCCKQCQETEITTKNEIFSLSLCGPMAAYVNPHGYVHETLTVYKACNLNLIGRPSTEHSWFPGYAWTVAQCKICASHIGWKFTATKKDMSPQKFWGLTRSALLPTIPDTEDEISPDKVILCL

On to 14-3-3ζ (from UniProt P63104), for which the equilibrium dissociation constant (Kd) in assay [1] is 560 nM.
For the substance “14-3-3ζ (from UniProt P63104) 14-3-3ζ pSer58 (genetic code expansion)”, in assay [2], the “binding against the reference” value is listed as “lost”.
With “14-3-3ζ WT (from UniProt P63104 1-230) (natural protein)”, the stoichiometry N in assay [3] amounted to 2. Further, the Kd in [4] was 120 nM; in assay [5] it was 92 nM. The stoichiometry N (14-3-3ζ chains per HSPB6 chain (2:2)) in assay [6] and in [7] was 1 each time.
As for “HSPB6 (small heat shock protein B6) (from UniProt O14558) HSPB6 pSer16 (genetic code expansion)”, in assay [8], the “binding against the reference” value is reported as “gained”.
As to “myc-14-3-3ζ nhpSer58 (from UniProt P63104 1-245) (natural protein)”, the fold co-immunoprecipitated relative to myc-14-3-3ζ WT or pSer58 in assay [9] was 10 fold.
